Measurements published in patent publication US20240398942A1 (CHIA TAI TIANQING PHARMACEUTICAL GROUP, published 2024).
Like-named read-outs stand apart in the source and are kept apart here.

Legend:
human CD40-Fc protein [1] = molecular target: T1, human CD40-Fc protein (human, biotinylated (sites not given) in the capture ELISA and the benchmark blocking ELISA; not biotinylated in the ligand blocking ELISA); experiment: competitive ELISA (self-competition): BM2 (selicrelumab) coated as competitor, soluble BM2 titrated and pre-mixed with biotinylated human CD40-Fc 0.23 nM, streptavidin-HRP, OD(450-630)
T1 construct: also called biotinylated human CD40-Fc
Method: The ability of the anti-CD40 antibody of the present application to block the binding of the benchmark to human CD40 was determined by competitive ELISA. Briefly, BM2 antibody was immobilized on a 96-well micro plates at 1 μg/mL in PBS, 100 µL/well, and incubated overnight at 4° C. The next day, the plate was washed once with a washing buffer before a blocking buffer (PBST containing 5% w/v of skim milk) was added. The plate was then incubated at 37° C. for 2 h for blocking. During the blocking of the 96-well plate, the anti-CD40 antibody of the present application or the benchmark was serially 5-fold diluted from 66.7 nM with a biotinylated human CD40-Fc protein (amino acid residues 21-193 of SEQ ID NO: 30 linked to the N terminus of amino acid residues 99-330 of SEQ ID NO: 28, dissolved in PBST containing 2.5% w/v of skim milk at a concentration of 0.23 nM) and then incubated at room temperature for 40 min. After the plate was washed 4 times, the antibody/biotinylated human CD40-Fc mixture was added at 100 μL/well to the plate coated with BM2. The plate was incubated at 37° C. for 40 min and again washed 4 times with the washing buffer. […] The absorbance was read on a microplate reader using the dual wavelength mode (TMB detection wavelength: 450 nm, reference wavelength: 630 nm). […] Data were analyzed using Graphpad Prism software, and IC₅₀ values were obtained.

human CD40-Fc protein [2] = molecular target: T1, human CD40-Fc protein; experiment: capture ELISA: antibody captured on coated goat anti-human IgG F(ab')2, biotinylated human CD40-Fc 1.15 nM, streptavidin-HRP, OD(450-630)
Method: The plate was washed once with a washing buffer (PBS+0.05% v/v of Tween-20, PBST) and then blocked with 200 μL/well blocking buffer (PBST containing 5% w/v of skim milk) for 2 h at 37° C. The plate was washed 4 times, and the anti-CD40 antibody of the present application, BM1, BM2, and a negative control hIgG (human immunoglobulin for intravenous injection (pH 4), Hualan Biological Engineering Inc.) serially 5-fold diluted from 66.7 nM in a PBST containing 2.5% w/v of skim milk was added at 100 μL per well. The plate was incubated for 40 min at 37° C. and washed 4 times. A biotinylated human CD40-Fc protein (amino acid residues 21-193 of SEQ ID NO: 30 linked to the N terminus of amino acid residues 99-330 of SEQ ID NO: 28, dissolved in PBST containing 2.5% w/v of skim milk at a concentration of 1.15 nM) was added at 100 μL/well to a 96-well plate coated with the anti-CD40 antibody. The plate was incubated at 37° C. for 40 min and washed 4 times. An HRP-labeled streptavidin (diluted at 1:10000 in PBST, Jackson Immuno Research, Cat. No. 016-030-084) was added at 100 μL/well, and the plate was incubated at 37° C. for another 40 min. After the last wash, 100 μL/well of ELISA substrate TMB (Innoreagents, Cat. No. TMB-S-002) was added and the plate was incubated at room temperature. After 3-10 min, the reaction was stopped by adding 1 M H₂SO₄ at 50 µL/well, and the absorbance of each well was read on a microplate reader using the dual wavelength mode (TMB detection wavelength: 450 nm, reference wavelength: 630 nm). Curves of OD(450-630) values vs. antibody concentration were plotted. Data were analyzed using Graphpad Prism software, and EC₅₀ values were obtained.

[3] = molecular target: T2, recombinant human CD40-his (Acro biosystems, Cat. No. CD0-H5228) (human, UniProt P25942 21-193); experiment: SPR (Biacore T200), antibody captured, CD40-his as analyte, 1:1 fit
T2 construct: Bought protein; also called human CD40-his protein; not shown: His tag
From the text: (§1) Briefly, a goat anti-human IgG (GE Healthcare, Cat. No. BR100839, human antibody capture kit) was covalently linked to a CM5 chip (GE Healthcare, Cat. No. BR100530, carboxymethylated dextran-coated chip) via the primary amine group using a standard amine coupling kit supplied by Biacore (GE Healthcare, Pittsburgh, PA, USA). Unreacted portions on the biosensor surface were blocked with ethanolamine. Then, the anti-CD40 antibody of the present application and two benchmark antibodies (BM1 (dacetuzumab, Genentech Inc., also referred to CD40-BM1, prepared in-house; the heavy and light chain amino acid sequences are set forth in SEQ ID NOs: 40 and 41, respectively) and BM2 (selicrelumab, Abgenix Inc., also referred to CD40-BM2, prepared in-house; the heavy and light chain amino acid sequences are set forth in SEQ ID NOS: 42 and 43, respectively)) at a concentration of 66.67 nM were directed through the chip at a flow rate of 10 μL/min. Then, serially diluted recombinant human CD40-his (Acro biosystems, Cat. No. CD0-H5228, serially 2-fold diluted from 80 nM in HBS-EP⁺ buffer (supplied by Biacore)) or cynomolgus monkey CD40-his protein (Acro biosystems, Cat. No. CD0-C52H6, serially 2-fold diluted from 80 nM in HBS-EP⁺ buffer (supplied by Biacore)) was directed through the chip at a flow rate of 30 μL/min. The antigen-antibody binding kinetics was tracked for 2 min and the dissociation kinetics was tracked for 10 min. The association and dissociation curves were fitted to a 1:1 Langmuir binding model using BIAcore evaluation software. KD, Kₐ, and Kd values were determined.

[4] = molecular target: T3, cynomolgus monkey CD40-his protein (Acro biosystems, Cat. No. CD0-C52H6) (cynomolgus monkey, UniProt G7PG38 21-193); experiment: as above
T3 construct: Bought protein; not shown: His tag
From the text: as §1

[5] = molecular target: T2, recombinant human CD40-his (Acro …); experiment: as above; remark: listed apart in the source

IC50 (human CD40-Fc protein [1]) [nM] | EC50 (human CD40-Fc protein [2]) [nM] | Kd [3] [nM] | koff [3] [s⁻¹] | kon [3] [M⁻¹ s⁻¹] | Kd [4] [nM] | koff [4] [s⁻¹] | kon [4] [M⁻¹ s⁻¹] | Kd [5] [nM] | koff [5] [s⁻¹] | kon [5] [M⁻¹ s⁻¹] | Binder
0.529 | 0.909 |  |  |  |  |  |  |  |  |  | BM2 (selicrelumab) (antibody, human IgG2, kappa, V domains shown, Benchmark antibody, prepared in-house; also called CD40-BM2; benchmark) VH: not shown VL: DIQMTQSPSSVSASVGDRVTITCRASQGIYSWLAWYQQKPGKAPNLLIYTASTLQSGVPSRFSGSGSGTDFTLTISSLQPEDFATYYCQQANIFPLTFGGGTKVEIKR
 | 0.463 |  |  |  |  |  |  |  |  |  | BM1 (dacetuzumab) (antibody, human IgG1, kappa, V domains shown, Benchmark antibody, prepared in-house; also called CD40-BM1; benchmark) VH: EVQLVESGGGLVQPGGSLRLSCAASGYSFTGYYIHWVRQAPGKGLEWVARVIPNAGGTSYNQKFKGRFTLSVDNSKNTAYLQMNSLRAEDTAVYYCAREGIYWWGQGTLVTVSS VL: DIQMTQSPSSLSASVGDRVTITCRSSQSLVHSNGNTFLHWYQQKPGKAPKLLIYTVSNRFSGVPSRFSGSGSGTDFTLTISSLQPEDFATYFCSQTTHVPWTFGQGTKVEIKR
 |  | 0.684 | 0.00123 | 1.79e+06 | 0.852 | 0.00118 | 1.39e+06 | 0.428 | 0.000897 | 2.1e+06 | mouse anti-CD40 monoclonal antibody C1H1 (antibody, V domains shown, Parent mouse antibody from a hybridoma; the mouse constant regions are not; also called Mouse C1H1) VH: EVKLVESGGGLVKPGASLKLSCAASGFTFSNYGISWVRQTSDKRLEWVASISSGGDNTYYPDNVKGRFTISRENAKNTLYLQMSSLKSEDTALYYCARAGEKAMDYWGQGTSVTVSS VL: DIVLTQSPVTLSVTPGDSVSLSCRASQTINNNLHWYQQKSHESPRLLIKYASQSISGIPSRFSGSGSGTDFTLSINSVETEDFGIYFCQQFSSWPLTFGAGTKLELK
